Assay results reported in the Immune Epitope Database (IEDB).

Key:
Experiment in all cases: IEDB peptide-MHC binding, purified MHC/competitive/fluorescence; filed as Kd, often an IC50 or EC50 that approximates it; ≥ and ≤ were set here for values at or beyond the usual limits of such assays
Conditions in all cases: source organism: Entamoeba histolytica HM-1:IMSS
HLA-A*24:03 = target: HLA-A*24:03
HLA-B*57:01 = target: HLA-B*57:01
HLA-B*15:01 = target: HLA-B*15:01
HLA-A*01:01 = target: HLA-A*01:01
HLA-A*02:12 = target: HLA-A*02:12
HLA-B*40:01 = target: HLA-B*40:01
HLA-A*02:19 = target: HLA-A*02:19
HLA-B*53:01 = target: HLA-B*53:01
HLA-B*14:02 = target: HLA-B*14:02
HLA-A*02:03 = target: HLA-A*02:03
HLA-A*29:02 = target: HLA-A*29:02
HLA-A*03:01 = target: HLA-A*03:01
HLA-A*02:01 = target: HLA-A*02:01
HLA-B*46:01 = target: HLA-B*46:01
HLA-B*18:01 = target: HLA-B*18:01
HLA-B*39:01 = target: HLA-B*39:01
HLA-A*30:01 = target: HLA-A*30:01
HLA-B*07:02 = target: HLA-B*07:02
HLA-A*11:01 = target: HLA-A*11:01
HLA-A*23:01 = target: HLA-A*23:01
HLA-B*08:01 = target: HLA-B*08:01
HLA-A*02:16 = target: HLA-A*02:16
HLA-A*66:01 = target: HLA-A*66:01
HLA-A*68:02 = target: HLA-A*68:02

In the case of EVRKAIEFV, the Kd (HLA-A*24:03) is reported as ≥ 20 µM, the Kd (HLA-B*57:01) is reported as ≥ 20 µM and the Kd (HLA-B*15:01) is reported as ≥ 20 µM. The Kd (HLA-A*01:01) was ≥ 5 µM, the Kd (HLA-A*02:12) was ≥ 20 µM and the Kd (HLA-B*40:01) was ≥ 5 µM. For the same sequence, the Kd (HLA-A*02:19) was ≥ 20 µM, the Kd (HLA-B*53:01) was ≥ 5 µM and the Kd (HLA-B*14:02) was ≥ 5 µM. For the same sequence, the Kd (HLA-A*02:03) was ≥ 20 µM, the Kd (HLA-A*29:02) was ≥ 20 µM and the Kd (HLA-A*03:01) was ≥ 20 µM. The Kd (HLA-A*02:01) was ≥ 20 µM, the Kd (HLA-B*46:01) was ≥ 20 µM and the Kd (HLA-B*18:01) was ≥ 20 µM. For the same sequence, the Kd (HLA-B*39:01) was ≥ 20 µM, the Kd (HLA-A*30:01) was ≥ 5 µM and the Kd (HLA-B*07:02) was ≥ 5 µM. For the same sequence, the Kd (HLA-A*11:01) was ≥ 5 µM, the Kd (HLA-A*23:01) was 1.3 µM and the Kd (HLA-B*08:01) was ≥ 5 µM. For the same sequence, the Kd (HLA-A*02:16) was ≥ 20 µM, the Kd (HLA-A*66:01) was 0.279 µM and the Kd (HLA-A*68:02) was ≤ 0.001 µM.
